Results reported in patent publication US20130142799A1 (Amgen, published 2013).
Each block holds one binder with its values, some of them ahead of it.

Tests used:
[1] = molecular target: T1, Tie2-Fc (human, UniProt Q02763 23-748); assay: ELISA at one concentration on conditioned medium with N-terminal hAng-2 (aa 1-254, 6xHis); O.D. 370; control pCDNA3 vector medium
T1 construct: extracellular domain; Bought reagent; Allophycocyanin-conjugated in the HTRF assay; also called hTie2-Fc; human Tie2-Fc; not shown: Fc portion of the bought Tie2-Fc
T1 sequence (Q02763 23-748): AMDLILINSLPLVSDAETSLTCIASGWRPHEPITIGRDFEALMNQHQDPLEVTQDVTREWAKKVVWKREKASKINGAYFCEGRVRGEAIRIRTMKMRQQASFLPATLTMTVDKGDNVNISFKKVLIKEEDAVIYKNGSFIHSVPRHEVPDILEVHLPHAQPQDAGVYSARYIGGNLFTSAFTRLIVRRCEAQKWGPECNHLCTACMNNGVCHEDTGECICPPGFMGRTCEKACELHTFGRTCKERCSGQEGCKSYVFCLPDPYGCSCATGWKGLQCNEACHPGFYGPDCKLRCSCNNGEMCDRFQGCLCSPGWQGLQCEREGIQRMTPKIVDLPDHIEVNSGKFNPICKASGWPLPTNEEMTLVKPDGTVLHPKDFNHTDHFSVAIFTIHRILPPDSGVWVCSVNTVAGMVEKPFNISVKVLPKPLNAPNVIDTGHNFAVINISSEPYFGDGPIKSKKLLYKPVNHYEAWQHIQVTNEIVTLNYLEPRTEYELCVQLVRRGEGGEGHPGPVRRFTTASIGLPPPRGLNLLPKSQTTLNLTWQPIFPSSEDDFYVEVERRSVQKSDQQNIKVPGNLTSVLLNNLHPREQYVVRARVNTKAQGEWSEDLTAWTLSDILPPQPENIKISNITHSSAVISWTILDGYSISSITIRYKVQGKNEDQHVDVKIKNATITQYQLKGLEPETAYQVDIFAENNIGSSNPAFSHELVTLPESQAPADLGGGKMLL
Protocol: The binding epitope of anti-Ang-2 antibodies and peptibodies was determined by their ability to bind the three versions of human hAng-2 by ELISA according to the following protocol: a high-binding 96-well assay plate was coated with 100 μl of conditioned media per well, and incubated at 37° C. for 1 hour. Conditioned media was aspirated, and the plate was blocked with 200 μl per well of 5% BSA in PBS at room temperature for 1 hour. The blocking solution was then aspirated. […] The wells were washed 4 times with 200 μl of 0.1% Tween in PBS. 100 μl per well of HRP-conjugated goat anti-human IgG or goat anti-mouse IgG were added, and incubated at room temperature for 45 minutes. The wells were then washed with 200 μl of 0.1% Tween in PBS 4 times. 100 μl per well of TMB substrate was then added. O.D. was read at 370 nm.

[2] = molecular target: T2, human angiopoietin-2 (human, UniProt O15123 19-496, limits assumed); assay: Affinity ELISA on plate-bound hAng-2
T2 construct: also called hAng-2; huAng-2
T2 sequence (looked up): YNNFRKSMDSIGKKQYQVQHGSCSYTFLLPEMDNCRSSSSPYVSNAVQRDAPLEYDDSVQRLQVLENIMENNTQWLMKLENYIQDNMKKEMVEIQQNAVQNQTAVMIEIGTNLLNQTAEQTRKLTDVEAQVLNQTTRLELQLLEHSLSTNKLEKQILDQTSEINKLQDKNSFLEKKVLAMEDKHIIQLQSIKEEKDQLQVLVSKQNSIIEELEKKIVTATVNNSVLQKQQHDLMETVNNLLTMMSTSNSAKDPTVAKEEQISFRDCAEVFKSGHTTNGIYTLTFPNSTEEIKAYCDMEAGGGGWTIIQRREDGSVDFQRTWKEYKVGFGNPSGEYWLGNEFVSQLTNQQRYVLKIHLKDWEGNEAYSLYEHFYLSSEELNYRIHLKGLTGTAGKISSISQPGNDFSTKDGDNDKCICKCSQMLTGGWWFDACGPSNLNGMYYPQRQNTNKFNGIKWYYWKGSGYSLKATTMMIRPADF

[3] = molecular target: T2, human angiopoietin-2; assay: BIAcore: antibody captured on Protein G, huAng-2 injected
Protocol: (§1) Binding assays were carried out by first attaching about 100 Ru of each candidate anti-Ang-2 antibody to the immobilized Protein G, after which various concentrations (0-100 nM) of huAng-2 or mAng-2 were then injected over the bound antibody surface at a flow rate of about 50 ul/min for about 3 minutes. Antibody binding kinetics including kₐ (association rate constant), kd (dissociation rate constant) and KD (dissociation equilibrium constant) were determined using the BIA evaluation 3.1 computer program (BIAcore, Inc.).

[4] = molecular target: T3, human angiopoietin-1 (human, UniProt Q15389 20-498); assay: Affinity ELISA on plate-bound hAng-1
T3 construct: also called hAng-1; Human Ang1
T3 sequence (looked up): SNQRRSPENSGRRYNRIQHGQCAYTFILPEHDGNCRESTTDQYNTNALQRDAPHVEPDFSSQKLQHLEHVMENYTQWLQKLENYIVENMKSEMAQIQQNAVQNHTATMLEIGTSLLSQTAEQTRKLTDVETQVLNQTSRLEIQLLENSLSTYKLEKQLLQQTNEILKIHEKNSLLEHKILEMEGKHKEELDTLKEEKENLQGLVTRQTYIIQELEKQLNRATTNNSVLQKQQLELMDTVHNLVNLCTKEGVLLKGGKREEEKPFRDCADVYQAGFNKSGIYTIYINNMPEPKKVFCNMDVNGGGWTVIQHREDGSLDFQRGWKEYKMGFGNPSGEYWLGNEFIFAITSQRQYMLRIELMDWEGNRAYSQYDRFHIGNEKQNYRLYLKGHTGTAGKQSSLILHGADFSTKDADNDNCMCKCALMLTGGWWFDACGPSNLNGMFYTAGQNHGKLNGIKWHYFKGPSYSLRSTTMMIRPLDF

[5] = molecular target: T3, human angiopoietin-1; assay: Neutralization ELISA: antibody titrated against 1 nM Tie2-Fc on plate-bound hAng-1
[6] = molecular target: T4, murine Ang-2, His-tagged (mouse, UniProt O35608 19-496); assay: Neutralization ELISA: antibody titrated against 1 nM Tie2-Fc on plate-bound mAng-2
T4 construct: also called mAng-2; mAng-2-His
T4 sequence (looked up): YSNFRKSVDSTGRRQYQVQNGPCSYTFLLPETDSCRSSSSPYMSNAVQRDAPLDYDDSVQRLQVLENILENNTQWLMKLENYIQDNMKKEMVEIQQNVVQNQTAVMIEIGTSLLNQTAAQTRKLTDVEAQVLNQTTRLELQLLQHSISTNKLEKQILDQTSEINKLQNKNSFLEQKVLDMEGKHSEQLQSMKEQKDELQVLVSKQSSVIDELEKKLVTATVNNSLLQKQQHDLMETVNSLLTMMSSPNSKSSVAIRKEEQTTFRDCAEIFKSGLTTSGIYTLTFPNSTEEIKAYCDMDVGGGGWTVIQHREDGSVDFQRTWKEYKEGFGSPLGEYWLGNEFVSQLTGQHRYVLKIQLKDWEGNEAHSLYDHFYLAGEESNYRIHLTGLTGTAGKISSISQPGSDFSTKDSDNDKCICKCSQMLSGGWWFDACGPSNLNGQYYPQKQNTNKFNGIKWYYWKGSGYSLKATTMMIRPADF

[7] = molecular target: T4, murine Ang-2, His-tagged; assay: Affinity ELISA on plate-bound mAng-2
[8] = molecular target: T4, murine Ang-2, His-tagged; assay: BIAcore: antibody captured on Protein G, mAng-2 injected
Protocol: as §1

[9] = molecular target: T2, human angiopoietin-2; assay: Neutralization ELISA: antibody titrated against 1 nM Tie2-Fc on plate-bound hAng-2
Protocol: Microtiter plates to which human Ang-2 polypeptide was bound were prepared as described for the Affinity ELISA. […] Next, about 100 microliters per well of goat anti-mouse-IgG-HRP (Pierce Chemical CO., catalog #31432) was added at a dilution of 1:10,000 in PBS containing about 1 percent BSA. Plates were incubated at room temperature for about 1 hour, after which they were washed five times with PBS containing about 0.1 percent Tween-20. About 100 microliters per well of TMB substrate (described above) was then added and color was allowed to develop. Absorbance was then read in a spectrophotomer at 370 nm.
Seventeen of the antibodies and a negative control IgG1 (referred to as RDB1) were tested using affinity and neutralization ELISA (as described in Example 3 above) as well as the BIAcore neutralization assay to determine their affinity, neutralization, and specificity capabilities.

[10] = molecular target: T5, Mouse Ang2 (recombinant, 293T cell conditioned media) (mouse, UniProt O35608 19-496); assay: ELISA: antibody titrated against 1 nM hTie2-Fc on plate-bound mouse Ang2 (293T conditioned media)
T5 construct: construct not described
T5 sequence (looked up): T4 sequence (looked up)
Protocol: (§2) For the ELISA assay, ninety-six-well microtiter plates were coated with recombinant angiopoietins in 293T cell conditioned media (DMEM/50 ug/ml BSA) at 37° C. for 1 hour. […] Plates were washed with PBS/0.1% Tween-20 and then blocked for 2 hours at room temperature with PBS/5% BSA. […] Goat anti-mouse-IgG-HRP (Pierce, catalog #31432) was added at a dilution of 1:10,000 in PBS/1% BSA (1 hour incubated at room temperature), after which plates were washed several times with PBS/0.1% Tween-20.
(§3) All results were expressed as IC50 curves calculated from samples that were tested in duplicate using the formula below.

[11] = molecular target: T2, human angiopoietin-2; assay: HTRF: antibody titrated against biotinylated human Ang2 and APC-conjugated human Tie2-Fc
Protocol: For HTRF assays, a ninety-six-well microtiter “mix plate” was prepared by adding 50 ul of HTRF buffer (50 mM Tris-HCl, pH 7.5, 100 mM NaCl, 0.05% Tween 20, 0.1% BSA) containing 0.8 nM Europium-conjugated streptavidin (PERKIN ELMER LIFE SCIENCES INC., catalog #AD0062) and 4.0 nM biotinylated human angiopoietin 1 (R & D Systems) or angiopoietin 2 (Amgen Inc.) to each well. In a separate microtiter plate, angiopoietin-neutralizing agents were titrated from 400 nM to […] in HTRF buffer, and 50 ul of each serially-diluted angiopoietin-neutralizing agent were then transferred and mixed with the “mix plate” containing the streptavidin-Europium/angiopoietin. The plate was then incubated on a shaker at room temperature for one hour. […] The final “assay plate” was incubated at room temperature with shaking for two hours. […] Assay plates were analyzed using a Rubystar plate reader (BMG Labtechnologies, Offenberg, Germany). […] IC50 values were then calculated by analyzing percentage inhibition using the GRAFIT 5.0 program (Erithacus Software Ltd.).
as §3

[12] = molecular target: T2, human angiopoietin-2; assay: ELISA: antibody titrated against 1 nM hTie2-Fc on plate-bound human Ang2 (293T conditioned media)
Protocol: as §2, §3

B3: Ab536 LQT (antibody, human IgG1, kappa, V domains shown)
VH: EVQLVQSGGGVVQPGRSLRLSCAASGFTFSSYGMHWVRQAPGKGLEWVSYISSSGSTIYYADSVKGRFTISRDNAKNSLYLQMNSLRAEDTAVYYCARDLLDYDILTGYGYWGQGTLVTVSS
VL: not shown
notes: Fully human IgG1 kappa; variant separated from the clone 536 mixture; also called 536 kappa LQT variant
IC50 [10]: 0.1 nM
IC50 [11]: 0.072 nM
IC50 [12]: 0.35 nM

B4: Ab536 THW (antibody, human IgG1, kappa, V domains shown)
VH: B3 VH
VL: not shown
notes: Fully human IgG1 kappa; variant separated from the clone 536 mixture; also called 536 kappa THW variant
IC50 [10]: 0.088 nM
IC50 [11]: 0.071 nM
IC50 [12]: 0.31 nM

Continued, values first:

binding result [1]: no binding (tested: 1 µg/ml)
B1: N-term hAng2 (aa 1-254) (ligand)
chain: YNNFRKSMDSIGKKQYQVQHGSCSYTFLLPEMDNCRSSSSPYVSNAVQRDAPLEYDDSVQRLQVLENIMENNTQWLMKLENYIQDNMKKEMVEIQQNAVQNQTAVMIEIGTNLLNQTAEQTRKLTDVEAQVLNQTTRLELQLLEHSLSTNKLEKQILDQTSEINKLQDKNSFLEKKVLAMEDKHIIQLQSIKEEKDQLQVLVSKQNSIIEELEKKIVTATVNNSVLQKQQHDLMETHHHHHH
notes: also called N-terminal human Ang-2

EC50 [2]: 0.02 nM
Kd [3]: 1.2 nM
koff [3]: 0.00039 s⁻¹
kon [3]: 330000 M⁻¹ s⁻¹
EC50 [4]: 2 nM
IC50 [5]: 8.31 nM
IC50 [6]: 1.3 nM
EC50 [7]: 0.05 nM
Kd [8]: 0.9 nM
koff [8]: 0.00053 s⁻¹
kon [8]: 590000 M⁻¹ s⁻¹
IC50 [9]: 1.04 nM
B2: Ab 545 (antibody, human IgG1, lambda, V domains shown)
VH: QVQLQESGGGVVQPGRSLRLSCAASGFTFSSYGMHWVRQAPGKGLEWVAVISYDGSNKYYADSVKGRFTISRDNSKNTLYLQMNSLRAEDTAVYYCAKGPVDFDYGDYAIDYWGQGTLVTVSS
VL: QSVLTQPSSVSGAPGQRVTISCTGQSSNIGAGYDVHWYQQFPGRAPKLLIYGNSNRPSGVPDRFSGSKSGTSASLAITGLQPEDEADYYCQSYDSRLSGSVFGGGTKLTVLG
notes: Fully human IgG1 lambda; also called clone 545
